Stoichiometry N data for three substances are collected here from PMC5391026.

Assay [1] has as its target recombinant barley plastidic starch phosphorylase (HvPho1) (barley (Hordeum vulgare)). Description: cross-linking; recombinant HvPho1 (1 mg/ml) in 20 mM HEPES pH 7.5 treated with glutaraldehyde (0.15% v/v) for 0.5 to 30 min at 37°C; SDS-PAGE.
The target is the same in assay [2]. As to the kind of experiment: SEC; single recombinant proteins on HiLoad Superdex S-200 26/60, 25 mM HEPES pH 7.5, 50 mM NaCl; apparent molecular weight by column calibration; peak fractions also analysed by DLS at 25°C. (In gel filtration, larger molecules generally elute earlier.)
The target in assay [3] is branching enzyme IIb (HvBeIIb) of barley endosperm extract (barley (endogenous in Hordeum vulgare 'QUENCH' endosperm)). Description: SEC; total barley endosperm soluble protein on a 26/60 Superdex S-200 column; fractions analysed by immunoblot (anti-HvPho1, anti-HvBeIIb polyclonal antibodies) and native activity gels; extract with or without 1 mM ATP and 2.5 mM protein phosphatase inhibitor cocktail before SEC.

For assay [4], the target named is HvPho1ΔL78 (HvPho1 lacking the L78 insertion) (barley (Hordeum vulgare)). As to the kind of experiment: SEC; single recombinant proteins on HiLoad Superdex S-200 26/60, 25 mM HEPES pH 7.5, 50 mM NaCl; apparent molecular weight by column calibration; peak fractions also analysed by DLS at 25°C.

What is called stoichiometry N is a count of units in the complex or per binding partner.

As for “recombinant barley plastidic starch phosphorylase (HvPho1) (enzyme)”, the stoichiometry N in assay [1] and in assay [2] was 2 in each case. For the substance “branching enzyme IIb (HvBeIIb) of barley endosperm extract”, in assay [3], the stoichiometry N was determined as 2. Take “HvPho1ΔL78 (HvPho1 lacking the L78 insertion) (enzyme)”: the stoichiometry N in assay [4] amounted to 2.
